The source of these data is PMC10083601 (Proceedings of the National Academy of Sciences of the …, 2023).

The assay concerns the target T1, N-terminally truncated tyrosine phosphorylated STAT1 (residues 136 to 750, N-terminally tagged with GB1) (UniProt P42224 136-750).
T1 sequence: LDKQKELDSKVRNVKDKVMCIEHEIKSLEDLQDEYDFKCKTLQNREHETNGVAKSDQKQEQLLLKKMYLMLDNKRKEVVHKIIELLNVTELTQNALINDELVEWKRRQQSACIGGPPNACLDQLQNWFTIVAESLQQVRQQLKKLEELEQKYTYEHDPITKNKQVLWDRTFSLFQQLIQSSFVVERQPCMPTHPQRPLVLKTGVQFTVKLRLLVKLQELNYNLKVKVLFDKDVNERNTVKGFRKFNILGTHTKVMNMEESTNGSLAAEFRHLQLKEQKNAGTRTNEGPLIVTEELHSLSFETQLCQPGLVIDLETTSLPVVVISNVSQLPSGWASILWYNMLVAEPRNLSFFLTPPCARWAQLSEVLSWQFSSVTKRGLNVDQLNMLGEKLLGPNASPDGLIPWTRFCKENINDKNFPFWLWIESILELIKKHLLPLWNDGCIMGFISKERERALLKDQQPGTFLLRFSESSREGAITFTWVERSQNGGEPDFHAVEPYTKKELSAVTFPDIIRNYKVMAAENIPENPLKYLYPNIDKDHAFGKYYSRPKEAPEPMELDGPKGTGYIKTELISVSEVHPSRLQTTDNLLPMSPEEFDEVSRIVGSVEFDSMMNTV
The assay is described as follows: ITC.

One may read the Kd as the equilibrium constant for the complex coming apart. Low readings indicate tighter binding, high ones weaker binding.

B1: Rabies virus (strain Nishigahara) P3 protein (natural protein)
chain: MSRLHLDDGKLPDLGRMSKAGEGRHQEDFQMDEGEDPSLLFQSYLDNVGVQIVRQMRSGERFLKIWSQTVEEIISYVTVNFPNPSGRSSEDKSTQTTSQEPKKETTSTPSQRKSQSLKSRTMAQTASGPPSLEWSATNEEDDLSVEAEIAHQIAESFSKKYKFPSRSSGIFLYNFEQLKMNLDDIVKEAKNVPGVTRLAHDGSKLPLRCVLGWVALANSKKFQLLVEANKLNKIMQDDLNRYASC
As for B1, binding was characterised by a dissociation constant (Kd) of 800 nM.
